Source: patent US20100291682, “SYSTEM FOR TRANSPOSING HYPERACTIVE RECOMBINANT DERIVATIVES OF MOS-1 TRANSPOSON” (published 2010)
Substitutions are numbered along the chain they refer to.

How the values were obtained:
Assay in all cases: cell_activity; 3T46 transposition in E. coli T5 vs 3T3/WT
Settings in all cases: chain copies: 2
Mos-1 transposase FTY = biological target: T1, Mos-1 transposase FTY (Drosophila mauritiana, UniProt Q7JQ07 SEQ:1-345, F53Y,T216A,Y237C)
T1 sequence: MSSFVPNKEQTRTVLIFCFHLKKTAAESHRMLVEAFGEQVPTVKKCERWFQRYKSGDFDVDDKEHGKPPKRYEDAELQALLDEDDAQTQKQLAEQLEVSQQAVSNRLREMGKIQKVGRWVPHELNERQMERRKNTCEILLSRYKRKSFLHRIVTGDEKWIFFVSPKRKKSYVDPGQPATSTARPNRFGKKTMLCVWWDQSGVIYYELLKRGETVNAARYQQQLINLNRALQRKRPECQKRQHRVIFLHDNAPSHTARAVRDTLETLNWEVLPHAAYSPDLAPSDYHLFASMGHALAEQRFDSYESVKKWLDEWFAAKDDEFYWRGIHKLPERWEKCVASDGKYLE
Description: (§1) Escherichia coli JM109 bacteria were co-transformed with the pBC 3T3 plasmid (comprising a transposition reporter 2 ITR 3′ mariner-like element and the chloramphenicol resistance gene) and with the inducible vector encoding for the transposase (pKK-Tnp or pMal-Tnp) comprising the ampicillin resistance gene. The bacteria selection was performed on ampicillin (100 μg/ml) and chloramphenicol in order to verify the presence of the two plasmids.
(§2) The JM109 bacteria containing both the pBC 3T3 plasmid and the pKK-Tnp (or pMalC2X-Tnp) plasmid were placed in culture for 1 hr at 37° C. in 250 μl of LB. This inoculum was then poured into 5 ml of LB supplemented with 1 mM IPTG. The culture was titrated on LB plates (100 μl of a 1/1000 dilution) and on LB-Tet plates (12.5 μg/ml) (250 μl of the non-diluted culture). The culture induced by IPTG was then cultured for 5 hours at 32° C. (optimal temperature of transposase) under stirring (250 rpm). The bacterial suspension was then titrated on LB plates (100 μl of a 1/250,000 dilution) and on LB-tet plates (100 μl of the undiluted bacterial suspension). The plates were placed at 37° C. overnight. The following day, the colonies were counted on LB and LB-Tet plates, and the transposition frequency (equal to the number of tetracycline bacteria over the number of bacterial per 1 ml of undiluted bacterial suspension) was calculated.
(§3) In order to evaluate the transposition efficiency of systems associating a hyperactive transposase and a pseudo-transposon that is also hyperactive, various combinations were tested in the transposition test in bacteria described in part I, paragraph I-B above.

Mos-1 transposase ET = biological target: T2, Mos-1 transposase ET (Drosophila mauritiana, UniProt Q7JQ07 SEQ:1-345, E137K,T216A)
T2 sequence: T1 sequence with Y53F, E137K, C237Y
Description: as §1, §2, §3

Mos-1 transposase TY = biological target: T3, Mos-1 transposase TY (Drosophila mauritiana, UniProt Q7JQ07 SEQ:1-345, T216A,Y237C)
T3 sequence: T1 sequence with Y53F
Description: as §1, §2, §3

Mos-1 transposase FT = biological target: T4, Mos-1 transposase FT (Drosophila mauritiana, UniProt Q7JQ07 SEQ:1-345, F53Y,T216A)
T4 sequence: T1 sequence with C237Y
Description: as §1, §2, §3

Mos-1 transposase FQETY = biological target: T5, Mos-1 transposase FQETY (Drosophila mauritiana, UniProt Q7JQ07 SEQ:1-345, F53Y,Q91R,E137K,T216A,Y237C)
T5 sequence: T1 sequence with Q91R, E137K
Description: as §1, §2, §3

B1: ITR46 (dsDNA)
DNA 1: TCAGGTGTACAAGTATGAGATGTCGTTT
DNA 2: AAACGACATCTCATACTTGTACACCTGA
Which results are given for B1?
activity (Mos-1 transposase FTY): 19.4 fold; activity (Mos-1 transposase ET): 6.7 fold; activity (Mos-1 transposase TY): 61.8 fold; activity (Mos-1 transposase FT): 3.7 fold; activity (Mos-1 transposase FQETY): 2.3 fold
